These results are taken from patent publication US9617572B2, “Methods of producing 7-carbon chemicals via aromatic compounds” (INVISTA North America S.á r.l., priority 2012, dated 2017).

Format in all cases: biochemical
A short description of experiment [1]: Carboxylate reductase activity assay (N7-acetyl-7-aminoheptanoate to N7-acetyl-7-aminoheptanal). The note with it: purified enzyme enhanced by sfp gene product, 2 mM N7-acetyl-7-aminoheptanoate, 1 mM ATP, 1 mM NADPH, pH 7.5, room temperature, 20 min, against empty vector control. As to the method:
The activity of each of the N-terminal His-tagged carboxylate reductases of SEQ ID NOs: 3, 6, and 7 (see Example 4, and FIGS. 7B, 7E, and 7F) for converting N7-acetyl-7-aminoheptanoate to N7-acetyl-7-aminoheptanal was assayed in triplicate in a buffer composed of a final concentration of 50 mM HEPES buffer (pH=7.5), 2 mM N7-acetyl-7-aminoheptanoate, 10 mM MgCl2, 1 mM ATP, and 1 mM NADPH. The assays were initiated by adding purified carboxylate reductase and phosphopantetheine transferase or the empty vector control to the assay buffer containing the N7-acetyl-7-aminoheptanoate then incubated at room temperature for 20 min. The consumption of NADPH was monitored by absorbance at 340 nm.

Experiment [2] in a line: ω-Transaminase activity assay, reverse direction (7-aminoheptanoate to pimelate semialdehyde). The note with it: cell free extract, 10 mM 7-aminoheptanoate, 10 mM pyruvate, pH 7.5, 25° C., 4 h, against empty vector control. As to the method:
(§1) A sequence encoding an N-terminal His-tag was added to the genes from Chromobacterium violaceum, Pseudomonas syringae, Rhodobacter sphaeroides, and Vibrio Fluvialis encoding the ω-transaminases of SEQ ID NOs: 8, 10, 11 and 13, respectively (see FIGS. 7F and 7G) such that N-terminal HIS tagged ω-transaminases could be produced. Each of the resulting modified genes was cloned into a pET21a expression vector under control of the T7 promoter and each expression vector was transformed into a BL21[DE3] E. coli host. The resulting recombinant E. coli strains were cultivated at 37° C. in a 250 mL shake flask culture containing 50 mL LB media and antibiotic selection pressure, with shaking at 230 rpm. Each culture was induced overnight at 16° C. using 1 mM IPTG.
(§2) The pellet from each induced shake flask culture was harvested via centrifugation. Each pellet was resuspended and lysed via sonication. The cell debris was separated from the supernatant via centrifugation and the cell free extract was used immediately in enzyme activity assays.
Enzyme activity assays in the reverse direction (i.e., 7-aminoheptanoate to pimelate semialdehyde) were performed in a buffer composed of a final concentration of 50 mM HEPES buffer (pH =7.5), 10 mM 7-aminoheptanoate, 10 mM pyruvate and 100 μM pyridoxyl 5′ phosphate. Each enzyme activity assay reaction was initiated by adding cell free extract of the ω-transaminase gene product or the empty vector control to the assay buffer containing the 7-aminoheptanoate and incubated at 25° C. for 4 h, with shaking at 250 rpm. The formation of L-alanine from pyruvate was quantified via RP-HPLC.

Experiment [3] in a line: ω-Transaminase activity assay (7-aminoheptanol to 7-oxoheptanol). The protocol:
A nucleotide sequence encoding an N-terminal His-tag was added to the Chromobacterium violaceum, Pseudomonas syringae and Rhodobacter sphaeroides genes encoding the ω-transaminases of SEQ ID NOs: 8, 10 and 11, respectively (see FIGS. 7F and 7G) such that N-terminal HIS tagged ω-transaminases could be produced. The modified genes were cloned into a pET21a expression vector under the T7 promoter. Each expression vector was transformed into a BL21[DE3] E. coli host. Each resulting recombinant E. coli strain were cultivated at 37° C. in a 250 mL shake flask culture containing 50 mL LB media and antibiotic selection pressure, with shaking at 230 rpm. Each culture was induced overnight at 16° C. using 1 mM IPTG.
as §2
Enzyme activity assays in the reverse direction (i.e., 7-aminoheptanol to 7-oxoheptanol) were performed in a buffer composed of a final concentration of 50 mM HEPES buffer (pH=7.5), 10 mM 7-aminoheptanol, 10 mM pyruvate, and 100 μM pyridoxyl 5′ phosphate. Each enzyme activity assay reaction was initiated by adding cell free extract of the ω-transaminase gene product or the empty vector control to the assay buffer containing the 7-aminoheptanol and then incubated at 25° C. for 4 h, with shaking at 250 rpm. The formation of L-alanine was quantified via RP-HPLC.

The nature of experiment [4]: ω-Transaminase activity assay, forward direction (pimelate semialdehyde to 7-aminoheptanoate). The protocol: as §1, §2
Enzyme activity in the forward direction (i.e., pimelate semialdehyde to 7-aminoheptanoate) was confirmed for the transaminases of SEQ ID NO 10, SEQ ID NO 11 and SEQ ID NO 13. Enzyme activity assays were performed in a buffer composed of a final concentration of 50 mM HEPES buffer (pH=7.5), 10 mM pimelate semialdehyde, 10 mM L-alanine and 100 μM pyridoxyl 5′ phosphate. Each enzyme activity assay reaction was initiated by adding a cell free extract of the ω-transaminase gene product or the empty vector control to the assay buffer containing the pimelate semialdehyde and incubated at 25° C. for 4 h, with shaking at 250 rpm. The formation of pyruvate was quantified via RP-HPLC.

B1: SEQ ID NO 6: Mycobacterium massiliense carboxylate reductase, Genbank Accession No. EIV11143.1 (protein)
chain: MTNETNPQQEQLSRRIESLRESDPQFRAAQPDPAVAEQVLRPGLHLSEAIAALMTGYAERPALGERARELVIDQDGRTTLRLLPRFDTTTYGELWSRTTSVAAAWHHDATHPVKAGDLVATLGFTSIDYTVLDLAIMILGGVAVPLQTSAPASQWTTILAEAEPNTLAVSIELIGAAMESVRATPSIKQVVVFDYTPEVDDQREAFEAASTQLAGTGIALETLDAVIARGAALPAAPLYAPSAGDDPLALLIYTSGSTGAPKGAMHSENIVRRWWIREDVMAGTENLPMIGLNFMPMSHIMGRGTLTSTLSTGGTGYFAASSDMSTLFEDMELIRPTALALVPRVCDMVFQRFQTEVDRRLASGDTASAEAVAAEVKADIRDNLFGGRVSAVMVGSAPLSEELGEFIESCFELNLTDGYGSTEAGMVFRDGIVQRPPVIDYKLVDVPELGYFSTDKPHPRGELLLKTDGMFLGYYKRPEVTASVFDADGFYMTGDIVAELAHDNIEIIDRRNNVLKLSQGEFVAVATLEAEYANSPVVHQIYVYGSSERSYLLAVVVPTPEAVAAAKGDAAALKTTIADSLQDIAKEIQLQSYEVPRDFIIEPQPFTQGNGLLTGIAKLARPNLKAHYGPRLEQMYAEIAEQQAAELRALHGVDPDKPALETVLKAAQALLGVSSAELAADAHFTDLGGDSLSALSFSDLLRDIFAVEVPVGVIVSAANDLGGVAKFVDEQRHSGGTRPTAETVHGAGHTEIRAADLTLDKFIDEATLHAAPSLPKAAGIPHTVLLTGSNGYLGHYLALEWLERLDKTDGKLIVIVRGKNAEAAYGRLEEAFDTGDTELLAHFRSLADKHLEVLAGDIGDPNLGLDADTWQRLADTVDVIVHPAALVNHVLPYNQLFGPNVVGTAEIIKLAITTKIKPVTYLSTVAVAAYVDPTTFDEESDIRLISAVRPIDDGYANGYGNAKWAGEVLLREAHDLCGLPVAVFRSDMILAHSRYTGQLNVPDQFTRLILSLIATGIAPGSFYQAQTTGERPLAHYDGLPGDFTAEAITTLGTQVPEGSEGFVTYDCVNPHADGISLDNFVDWLIEAGYPIARIDNYTEWFTRFDTAIRGLSEKQKQHSLLPLLHAFEQPSAAENHGVVPAKRFQHAVQAAGIGPVGQDGTTDIPHLSRRLIVKYAKDLEQLGLL
modifications: Mycobacterium massiliense
Regarding B1, the “acceptance of N7-acetyl-7-aminoheptanoate as substrate (consumption of NADPH, absorbance at 340 nm)” value in experiment [1] is reported as “accepted N7-acetyl-7-aminoheptanoate as substrate”.

B2: SEQ ID NO 10: Pseudomonas syringae ω-transaminase, Genbank Accession No. AAY39893.1 (protein, listed as Pseudomonas syringae)
chain: MSANNPQTLEWQALSSEHHLAPFSDYKQLKEKGPRIITRAEGVYLWDSEGNKILDGMSGLWCVAIGYGREELADAASKQMRELPYYNLFFQTAHPPVLELAKAISDIAPEGMNHVFFTGSGSEGNDTMLRMVRHYWALKGQPNKKTIISRVNGYHGSTVAGASLGGMTYMHEQGDLPIPGVVHIPQPYWFGEGGDMTPDEFGIWAAEQLEKKILELGVENVGAFIAEPIQGAGGVIVPPDSYWPKIKEILSRYDILFAADEVICGFGRTSEWFGSDFYGLRPDMMTIAKGLTSGYVPMGGLIVRDEIVAVLNEGGDFNHGFTYSGHPVAAAVALENIRILREEKIVERVRSETAPYLQKRLRELSDHPLVGEVRGVGLLGAIELVKDKTTRERYTDKGAGMICRTFCFDNGLIMRAVGDTMIIAPPLVISFAQIDELVEKARTCLDLTLAVLQG
For the molecule B2, the “acceptance of 7-aminoheptanoate as substrate (formation of L-alanine from pyruvate, RP-HPLC)” value in experiment [2] was “accepted 7-aminoheptanote as substrate”. Besides, the “acceptance of 7-aminoheptanol as substrate (formation of L-alanine, RP-HPLC)” value in experiment [3] (cell free extract, 10 mM 7-aminoheptanol, 10 mM pyruvate, pH 7.5, 25° C., 4 h, against empty vector control) is given as “accepted 7-aminoheptanol as substrate”. Also, the “acceptance of 7-oxoheptanol as substrate forming 7-aminoheptanol” value in experiment [3] (concluded from reversibility of the ω-transaminase activity (Example 2)) is “accept 7-oxoheptanol as substrate and form 7-aminoheptanol”. For the same molecule, in experiment [4] (cell free extract, 10 mM pimelate semialdehyde, 10 mM L-alanine, pH 7.5, 25° C., 4 h, against empty vector control), the “acceptance of pimelate semialdehyde as substrate (formation of pyruvate from L-alanine, RP-HPLC)” value is given as “accepted pimelate semialdehyde as substrate”. For the same molecule, in experiment [4] (conclusion from reverse and forward direction assays), the “reversibility of ω-transaminase activity: accepts pimelate semialdehyde and synthesizes 7-aminoheptanoate” value was “accepted pimelate semialdehyde as substrate and synthesized 7-aminoheptanoate”.

B3: SEQ ID NO 3: Mycobacterium smegmatis carboxylate reductase, Genbank Accession No. ABK71854.1 (protein, listed as Mycobacterium smegmatis)
chain: MTSDVHDATDGVTETALDDEQSTRRIAELYATDPEFAAAAPLPAVVDAAHKPGLRLAEILQTLFTGYGDRPALGYRARELATDEGGRTVTRLLPRFDTLTYAQVWSRVQAVAAALRHNFAQPIYPGDAVATIGFASPDYLTLDLVCAYLGLVSVPLQHNAPVSRLAPILAEVEPRILTVSAEYLDLAVESVRDVNSVSQLVVFDHHPEVDDHRDALARAREQLAGKGIAVTTLDAIADEGAGLPAEPIYTADHDQRLAMILYTSGSTGAPKGAMYTEAMVARLWTMSFITGDPTPVINVNFMPLNHLGGRIPISTAVQNGGTSYFVPESDMSTLFEDLALVRPTELGLVPRVADMLYQHHLATVDRLVTQGADELTAEKQAGAELREQVLGGRVITGFVSTAPLAAEMRAFLDITLGAHIVDGYGLTETGAVTRDGVIVRPPVIDYKLIDVPELGYFSTDKPYPRGELLVRSQTLTPGYYKRPEVTASVFDRDGYYHTGDVMAETAPDHLVYVDRRNNVLKLAQGEFVAVANLEAVFSGAALVRQIFVYGNSERSFLLAVVVPTPEALEQYDPAALKAALADSLQRTARDAELQSYEVPADFIVETEPFSAANGLLSGVGKLLRPNLKDRYGQRLEQMYADIAATQANQLRELRRAAATQPVIDTLTQAAATILGTGSEVASDAHFTDLGGDSLSALTLSNLLSDFFGFEVPVGTIVNPATNLAQLAQHIEAQRTAGDRRPSFTTVHGADATEIRASELTLDKFIDAETLRAAPGLPKVTTEPRTVLLSGANGWLGRFLTLQWLERLAPVGGTLITIVRGRDDAAARARLTQAYDTDPELSRRFAELADRHLRVVAGDIGDPNLGLTPEIWHRLAAEVDLVVHPAALVNHVLPYRQLFGPNVVGTAEVIKLALTERIKPVTYLSTVSVAMGIPDFEEDGDIRTVSPVRPLDGGYANGYGNSKWAGEVLLREAHDLCGLPVATFRSDMILAHPRYRGQVNVPDMFTRLLLSLLITGVAPRSFYIGDGERPRAHYPGLTVDFVAEAVTTLGAQQREGYVSYDVMNPHDDGISLDVFVDWLIRAGHPIDRVDDYDDWVRRFETALTALPEKRRAQTVLPLLHAFRAPQAPLRGAPEPTEVFHAAVRTAKVGPGDIPHLDEALIDKYIRDLREFGLI
As for B3, in experiment [1], the “acceptance of N7-acetyl-7-aminoheptanoate as substrate (consumption of NADPH, absorbance at 340 nm)” value is reported as “accepted N7-acetyl-7-aminoheptanoate as substrate”.
